Assays:
[1] = target: T1, extracellular domain of rhesus monkey BCMA (rhesus monkey, UniProt F7FFA0 1-53); experiment: Octet BLI; Fab 200 nM
T1 construct: extracellular domain; also called RhBCMA

[2] = target: T2, extracellular domain of human BCMA (human, UniProt Q02223 1-54); experiment: Octet BLI; Fab 200 nM
T2 construct: amine-linked to Octet AR2G tips; also called hsBCMA; BCMA (human)
T2 sequence: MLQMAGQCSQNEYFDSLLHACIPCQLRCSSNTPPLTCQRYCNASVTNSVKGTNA

T1 sequence (F7FFA0 entry or part of it): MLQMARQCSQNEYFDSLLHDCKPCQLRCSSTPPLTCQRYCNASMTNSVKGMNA

Binder	Kd [1] [nM]	Kd [2] [nM]
AB200-R1a-Fab_VH24 (Fab, V domains shown) VH: QVQLVQSGAEVKKPGSSVKVSCKASGGTFTNYWMHWVRQAPGQGLEWMGATYRGHSNTYYNQKFKGRVTITADKSTSTAYMELSSLRSEDTAVYYCARGAIYHGYDVIDNWGQGTLVTVSS VL: DIQMTQSPSSLSASVGDRVTITCSATQDISNYLNWYQQKPGKAPKLLIYFTSNLQSGVPSRFSGSGSGTDFTLTISSLQPEDFATYYCQQYRKLPWTFGQGTKLEIKR	24.5	13.1
AB200-R1a-Fab_VH31 (Fab, V domains shown) VH: QVQLVQSGAEVKKPGSSVKVSCKASGGTFSNYWMHWVRQAPGQGLEWMGGTYRGHSDTYFNQKFKGRVTITADKSTSTAYMELSSLRSEDTAVYYCARGAIYHGFDVLDNWGQGTLVTVSS VL: DIQMTQSPSSLSASVGDRVTITCSATQDISNYLNWYQQKPGKAPKLLIYFTSNLQSGVPSRFSGSGSGTDFTLTISSLQPEDFATYYCQQYRKLPWTFGQGTKLEIKR	19.2	9.06
AB200-R1a-Fab_VH35 (Fab, V domains shown) VH: QVQLVQSGAEVKKPGSSVKVSCKASGGTFSNYWIHWVRQAPGQGLEWMGATFKGHSDTYYNQKFKGRVTITADKSTSTAYMELSSLRSEDTAVYYCARGAIYHGYDVLDNWGQGTLVTVSS VL: DIQMTQSPSSLSASVGDRVTITCSATQDISNYLNWYQQKPGKAPKLLIYFTSNLQSGVPSRFSGSGSGTDFTLTISSLQPEDFATYYCQQYRKLPWTFGQGTKLEIKR	9.49	8.5
AB200-R1a-Fab_VH45 (Fab, V domains shown) VH: QVQLVQSGAEVKKPGSSVKVSCKASGGTFSNYWMHWVRQAPGQGLEWMGATYRGHSDTYYNNKFKGRVTITADKSTSTAYMELSSLRSEDTAVYYCARGAIYHGYDVLEDWGQGTLVTVSS VL: DIQMTQSPSSLSASVGDRVTITCSATQDISNYLNWYQQKPGKAPKLLIYFTSNLQSGVPSRFSGSGSGTDFTLTISSLQPEDFATYYCQQYRKLPWTFGQGTKLEIKR	44.9	21.1
AB200-R1a-Fab_VH38 (Fab, V domains shown) VH: QVQLVQSGAEVKKPGSSVKVSCKASGGTFSNYWMHWVRQAPGQGLEWMGATYRGHSDTYFNQKFKGRVTITADKSTSTAYMELSSLRSEDTAVYYCARGAIFNGYDVLDNWGQGTLVTVSS VL: DIQMTQSPSSLSASVGDRVTITCSATQDISNYLNWYQQKPGKAPKLLIYFTSNLQSGVPSRFSGSGSGTDFTLTISSLQPEDFATYYCQQYRKLPWTFGQGTKLEIKR	12.1	4.12
AB200-R1a-Fab_VH36 (Fab, V domains shown) VH: QVQLVQSGAEVKKPGSSVKVSCKASGGTFSNYWMHWVRQAPGQGLEWMGATFRGHSDTYYNHKFKGRVTITADKSTSTAYMELSSLRSEDTAVYYCARGAIYHGFDVLDNWGQGTLVTVSS VL: DIQMTQSPSSLSASVGDRVTITCSATQDISNYLNWYQQKPGKAPKLLIYFTSNLQSGVPSRFSGSGSGTDFTLTISSLQPEDFATYYCQQYRKLPWTFGQGTKLEIKR	45.4	28.1
AB200-R1a-Fab_VH44 (Fab, V domains shown) VH: QVQLVQSGAEVKKPGSSVKVSCKASGGTFSNYWMHWVRQAPGQGLEWMGGTYRGHSDTYYNQRFKGRVTITADKSTSTAYMELSSLRSEDTAVYYCARGAIYHGYDILDNWGQGTLVTVSS VL: DIQMTQSPSSLSASVGDRVTITCSATQDISNYLNWYQQKPGKAPKLLIYFTSNLQSGVPSRFSGSGSGTDFTLTISSLQPEDFATYYCQQYRKLPWTFGQGTKLEIKR	8.61	29
AB200-R1a-Fab_VH26 (Fab, V domains shown) VH: QVQLVQSGAEVKKPGSSVKVSCKASGGSFSNYWMHWVRQAPGQGLEWMGATYRIHSDTFYNQKFKGRVTITADKSTSTAYMELSSLRSEDTAVYYCARGAIYHGYDVLDNWGQGTLVTVSS VL: DIQMTQSPSSLSASVGDRVTITCSATQDISNYLNWYQQKPGKAPKLLIYFTSNLQSGVPSRFSGSGSGTDFTLTISSLQPEDFATYYCQQYRKLPWTFGQGTKLEIKR	2.31	0.926
AB200-R1a-Fab_VH27 (Fab, V domains shown) VH: QVQLVQSGAEVKKPGSSVKVSCKATGGTFSNYWMHWVRQAPGQGLEWMGAIYRGHSDTYYNQKFRGRVTITADKSTSTAYMELSSLRSEDTAVYYCARGAIYHGYDVLDNWGQGTLVTVSS VL: DIQMTQSPSSLSASVGDRVTITCSATQDISNYLNWYQQKPGKAPKLLIYFTSNLQSGVPSRFSGSGSGTDFTLTISSLQPEDFATYYCQQYRKLPWTFGQGTKLEIKR	7.84	3.8
AB200-R1a-Fab_VH40 (Fab, V domains shown) VH: QVQLVQSGAEVKKPGSSVKVSCKASGGTFSNFWMHWVRQAPGQGLEWMGATYRGHSDTYYNHKFKGRVTITADKSTSTAYMELSSLRSEDTAVYYCARGAIYHGYDVLENWGQGTLVTVSS VL: DIQMTQSPSSLSASVGDRVTITCSATQDISNYLNWYQQKPGKAPKLLIYFTSNLQSGVPSRFSGSGSGTDFTLTISSLQPEDFATYYCQQYRKLPWTFGQGTKLEIKR	45.3	17.2
AB200-R1a-Fab_VH33 (Fab, V domains shown) VH: QVQLVQSGAEVKKPGSSVKVSCKASGGTFTNFWMHWVRQAPGQGLEWMGATYRGQSDTYYNQKFKGRVTITADKSTSTAYMELSSLRSEDTAVYYCARGAIYHGYDVLDNWGQGTLVTVSS VL: DIQMTQSPSSLSASVGDRVTITCSATQDISNYLNWYQQKPGKAPKLLIYFTSNLQSGVPSRFSGSGSGTDFTLTISSLQPEDFATYYCQQYRKLPWTFGQGTKLEIKR	5.12	1.43
AB200-R1a-Fab_VH34 (Fab, V domains shown) VH: QVQLVQSGAEVKKPGSSVKVSCKASGGTFSNYYLHWVRQAPGQGLEWMGATYRGHSDTYYNQKFKGRVTITADKSTSTAYMELSSLRSEDTAVYYCARGAIYNGYDVLDNWGQGTLVTVSS VL: DIQMTQSPSSLSASVGDRVTITCSATQDISNYLNWYQQKPGKAPKLLIYFTSNLQSGVPSRFSGSGSGTDFTLTISSLQPEDFATYYCQQYRKLPWTFGQGTKLEIKR	13.2	18.9
AB200-R1a-Fab_VH30 (Fab, V domains shown) VH: QVQLVQSGAEVKKPGSSVKVSCKASGGTYSNYWMHWVRQAPGQGLEWMGATYRGHTDTYYNQKFKGRVTITADKSTSTAYMELSSLRSEDTAVYYCARGAIYHGYDVMDNWGQGTLVTVSS VL: DIQMTQSPSSLSASVGDRVTITCSATQDISNYLNWYQQKPGKAPKLLIYFTSNLQSGVPSRFSGSGSGTDFTLTISSLQPEDFATYYCQQYRKLPWTFGQGTKLEIKR	28.2	22.3
AB200-R1a-Fab_VH37 (Fab, V domains shown) VH: QVQLVQSGAEVKKPGSSVKVSCKASGGTFTNYWMHWVRQAPGQGLEWMGATYKGHSDTYYNQKFRGRVTITADKSTSTAYMELSSLRSEDTAVYYCARGAIYHGYDVLDNWGQGTLVTVSS VL: DIQMTQSPSSLSASVGDRVTITCSATQDISNYLNWYQQKPGKAPKLLIYFTSNLQSGVPSRFSGSGSGTDFTLTISSLQPEDFATYYCQQYRKLPWTFGQGTKLEIKR	10.4	5.28
AB200-R1a-Fab_VH42 (Fab, V domains shown) VH: QVQLVQSGAEVKKPGSSVKVSCKASGGTFSNYWMHWVRQAPGQGLEWMGATYRGHSTTYYNQKFKGRVTITADKSTSTAYMELSSLRSEDTAVYYCARGSIYHGYDVMDNWGQGTLVTVSS VL: DIQMTQSPSSLSASVGDRVTITCSATQDISNYLNWYQQKPGKAPKLLIYFTSNLQSGVPSRFSGSGSGTDFTLTISSLQPEDFATYYCQQYRKLPWTFGQGTKLEIKR	15.5	28.4

— patent publication US20240327535A1 (EISAI R AND D MANAGEMENT, published 2024)
